Assay results published in US6984382 (dated 2006).

Molecular target: T1, purified extracellular domain of the erbB-2 protein (human, UniProt P04626 23-652)
T1 construct: extracellular domain; also called erbB-2^ecd; soluble erbB-2 receptor
Test: flow cytometry
Procedure: Cell surface expression and erbB-2 receptor binding ability of the scFv(FRP5):hinge:ζ protein in transduced C196 CTL and in transduced Jurkat cells are confirmed by flow cytometry.
Single-cell suspensions of 5 ×10^5 viable cells (Jurkat cells, JFYZ.4 cells, C196 cells, CFYZ.1 cells) are stained with the purified extracellular domain of the erbB-2 protein (erbB-2^ecd, expressed in Sf9 insect cells using a baculovirus expression vector; Disis et al., Cancer Res. 54, 16–20 (1994)) for 1 hour followed by the FITC-conjugated anti-erbB-2 monoclonal antibody FSP77 (European patent application EP-A-502 812) for 45 min at 4° C. in 100 µl PBS containing 1% BSA and 0.1% sodium azide. FSP77 also is specific for the extracellular domain of the erbB-2 receptor, but recognizes a different epitope from mAb FRP5 (I. M. Harwerth et al., J. Biol. Chem. 21, 15160–15167 (1992)).

B1: scFv(FRP5):hinge:ζ protein (receptor)
chain: QIQLVQSGPELKKPGETVKISCKASGYPFTNYGMNWVKQAPGQGLKWMGWINTSTGESTFADDFKGRFDFSLETSANTAYLQINNLKSEDMATYFCARWEVYHGYVPYWGQGTTVTVSSGGGGSGGGGSGGGGSDIQLTQSHKFLSTSVGDRVSITCKASQDVYNAVAWYQQKPGQSPKLLIYSASSRYTGVPSRFTGSGSGPDFTFTISSVQAEDLAVYFCQQHFRTPFTFGSGTKLEIKALEISNSVMYFSSVVPVLQKVNSTTTKPVLRTPSPVHPTGTSQPQRPEDCRPRGSVKGTGLDFLEDPKLCYLLDGILFIYGVIITALYLRAKFSRSAETAANLQDPNQLYNELNLGRREEYDVLEKKRARDPEMGGKQQRRRNPQEGVYNALQKDKMAEAYSEIGTKGERRRGKGHDGLYQGLSTATKDTYDALHMQTLAPR
notes: Stood on the surface of transduced murine CTL C196 (clone CFYZ.1) and human Jurkat cells (clone JFYZ.4); On cells it is found as disulfide-linked homodimers and as heterodimers with endogenous ζ; also called scFv(FRP5):hinge:zeta; scFv:hinge:ζ
B1: binds.
